In the nanobody polyreactivity screen of Harvey et al. (2022):

Experiment: yeast display, Sf9 membrane polyspecificity reagent, FACS + sequencing; frameworks hold sequencing errors
Outline: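 Nanobodies came from a synthetic yeast display library in Saccharomyces cerevisiae BJ5465, induced with galactose for 36–48 hours and stained for 1 hour at 4 °C with 10% biotinylated, detergent-solubilized Sf9 membrane reagent. Cells were enriched on streptavidin microbeads and then FACS-sorted, with low and high (top ~1%) gates set on anti-HA fluorescence for expression and streptavidin fluorescence for reagent binding. Each polyreactivity label reflects the gate a clone came from. Genes were amplified by colony PCR, sequenced by MiSeq 2 × 250 and filtered by CDR length.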

Row | Sequence | polyreactivity (PSR sort gate)
1 | QVQLVESGGGLVQAGGSLRLSCAASGFTLEFYAMGWYRQAPGKERELVARITTSGGSTRYADSVKGRFTISRDNAKNTVYLQMNSLKPEDTAVYYCPARGYGYRNVQTYGYWGQGTQVTVSS | high polyreactivity
2 | QVQLVESGGGLVQAGGSLRLSCAASGFTLEPNTMGWYRQAPGKERELVAGISWSGGSTYYADSVKGRFTISRDNAKNTVYLQMNSLKPEDTAVYYCNDDSGWFCYDYWGQGTQVTVSS | low polyreactivity
3 | QVQLVESGGGLVQAGGSLRLSCAASGFTLFGYAMGWYRPAPGKERELVAAITRSGGSTFYADSVKGRFTISRDNAKNTVYLQMNSLKPEDTAVYYCAAVRSKLYYYWGQGTQVTVSS | high polyreactivity
4 | QVQLVESGGGLVQAGGSLRLSCAASGFTLGDNAMGWYRQAPGTERELVAAISASGGSTYYADSVKGRFTISRDNEKNTVYLQMNSLKPEDTAVYYCILHGYKYDYWGQGTQVTVSS | low polyreactivity
5 | QVQLVESGGGLVQAGGSLRLSCAASGFTLGFYAMGWYRQEPGKERELVAAINWRGGSTYYADSVKGRFTISRDNAKNTVYLLMNSLKPEDTAVYYCNRVYRPSRYDYWGQGTQVTVSS | high polyreactivity
6 | QVQLVESGGGLVQAGGSLRLSCAASGFTLGSYVMGWSRQAPGKERELVARITWSGGSTYYADSVKGRFTISRDNAKNTVYLQMNSLKPEDTAVYYCNTGYWARLAYWPFNYKWDDYWGQGTQVTVSS | high polyreactivity
7 | QVQLVESGGGLVQAGGSLRLSCAASGFTLGTNTMGWYRQAPGKEREFVAAISGRGSSTYYADSVKGRFTISRDNAKNTVYLQMNSLKPEDTAVYYCNKVFWPHPKVVTGNYWGQGTQVTVSS | high polyreactivity
8 | QVQLVESGGGLVQAGGSLRLSCAASGFTLGWYAMGWYRQAPGKERELVASINWDGGSTYYADSVKGRFTISRDNAKNTVYLQMNSLKPEDTAVYYCNAVNKWFPKVGYNYWGQGTQVTVSS | high polyreactivity
9 | QVQLVESGGGLVQAGGSLRLSCAASGFTLHSYAMGWYRQAPGKERELVAAITTGGSTYYADSVKGRFTISRDNAKNTVYLQMNSLKPEDTAVYYCAADVPGNYRKYRYGRASSHDYWGQGTQVTVSS | low polyreactivity
10 | QVQLVESGGGLVQAGGSLRLSCAASGFTLNAYAMGWYRQAPGKERELVAAISRNGGRTYYADSVKGRFTISRDNAKNTVYLQMNSLKPEDTAVYYCNAVSGTIARPYDPYDYWGQGTQVTVSS | high polyreactivity
11 | QVQLVESGGGLVQAGGSLRLSCAASGFTLRGNAMGWYRQAPGKERELVAAISTGGSTYYADSVKGRFTISRDNAKNTVYLQMNSLKPEDTAVYYCARRGWFHYRYYYWGQGTQVTVSS | high polyreactivity
12 | QVQLVESGGGLVQAGGSLRLSCAASGFTLRKYSMGWYRQAPGKEREFVATISSRAASTYYADSVKGRFTISRDNAKNTVYLQMISLKPEDTAVYYCNKVSPYRGYYWGQGTQVTVSS | high polyreactivity
13 | QVQLVESGGGLVQAGGSLRLSCAASGFTLSRYAMGWYRQAPGKERELVAAIRWSGGSTYYADSVKGRFTISRDNAKNTVYLQMNSLKPEDTAVYYCATRYYLKFLDGYNYWGQGTQVTVSS | high polyreactivity
14 | QVQLVESGGGLVQAGGSLRLSCAASGFTLTAYAMGWYRQARGKEREFVAAISTSGTRTYYADSVKGRFTISRDNAKNTVYLQMNSLKPEDTAVYYCGARYSGYQYWKFNYWGQGTQVTVSS | high polyreactivity
15 | QVQLVESGGGLVQAGGSLRLSCAASGFTLVGYAMGWYRQAPGKERELVAAISSGGRTKYADSVKGRFTFSRDNAKNTVYLQMNSLKPEDTAVYYCKAVFTRGVTQYDHYYWGQGTQVTVSS | high polyreactivity
16 | QVQLVESGGGLVQAGGSLRLSCAASGFTLWLNAMGWSRQAPGKERELVAAITTSDDGTYYADSVNGRFTISRDTAKNTVYLQMNSLKPEDTAVYYCAADYYSVLYDYWGQGTQVTVSS | low polyreactivity
17 | QVQLVESGGGLVQAGGSLRLSCAASGFTLYEYAMGWYRQAPGKERELVAAISSAGNTNYADSVKGRFTISRDNAKNTVYLQLNSLKPEDTAVYYCAKYRYDYTKTEGGYWGQGTQVTVSS | low polyreactivity
18 | QVQLVESGGGLVQAGGSLRLSCAASGFTLYGYAMGWYRQAPGKERELVAGIRYSGGRTYYADSVKGRFTISRDNAKNTVYLQMNSLKPEDTAVYYCAADGGYWRGTGYEYWGQGTQVTVSS | high polyreactivity
19 | QVQLVESGGGLVQAGGSLRLSCAASGFTLYGYTMGWSRQAPGKERELVAAITVSGTSTYYADSVKGRFTISRDNAKYTVSLQMNSLKPEDTAVYYCAARPRRRYYGYDSWGQGTQVSVSS | high polyreactivity
20 | QVQLVESGGGLVQAGGSLRLSCAASGFTLYGYTMGWYRQAPGKERELVAAISGSGGRTYYADSVKGRFTISRDNAKNTVYLQMNSLKPEDTAVYYCAARHHPEYYYWGQGTQVTVSS | high polyreactivity
21 | QVQLVESGGGLVQAGGSLRLSCAASGFTLYNNAMGWYRQAPGKERELVARISGSGGSTYYADSVKGRFTISRDNAKNTVYLQMNSLKPEDTAVYYCNARATYVPTYGYTHWYNYWGQGTQVTVSS | low polyreactivity

Row | Sequence | polyreactivity (PSR sort gate)
22 | QVQLVESGGGLVQAGGSLRLSCAASGFTLYPYAKGWYRQAPGKARELVAAISWSVGSTRYADSVKGRFTISRDNAKNTVYLQMNSLKPEDTAVYYCAARPHGRFSQLRVDWGQGTQVTVSS | low polyreactivity
23 | QVQLVESGGGLVQAGGSLRLSCAASGFTLYRYAMGWYIQAPGKERELVAAISKRGASSYYADSVKGRFTISRDNAKNTVYLQMNSLKPEDTAVYYCAATISRAYKPVKGHYYLGMDYWGQGTQVTVSS | high polyreactivity
24 | QVQLVESGGGLVQAGGSLRLSCAASGFTLYRYAMGWYRQAPGKERELVAAISKRGATSYYADSVKGRFTISRDNAKNTVYLQMNSLKPEDTAVYYCAATISRAYKPVKGHYYLGMDYWGQGTQVTVSS | high polyreactivity
25 | QVQLVESGGGLVQAGGSLRLSCAASGFTLYSYAMGWYRQAPGKERELVAAISWSGTRTYYADTVKGRFTISRDNAKNTVYLQMNSLKPEDTAVYYCAARGYRYGYGYWGQCTQVTVSS | high polyreactivity
26 | QVQLVESGGGLVQAGGSLRLSCAASGFTLYYYAMGWYRQAPGKERELVAAISTRGGRTYYADSVKGRFTISRDNAKNTVYLQINSLKPEDTAVYYCAAAFSLKSLNTRWTWSRYYYWGQGTQVTVSS | high polyreactivity
27 | QVQLVESGGGLVQAGGSLRLSCAASGFTLYYYAMGWYRQAPGKERELVAAISYSGGTTYYADSVKGRFTISRDNAKYTVSLQMNSLKPEDTAVYYCAAEVGGYWADEYLGYDYWGQGTQVTVSS | low polyreactivity
28 | QVQLVESGGGLVQAGGSLRLSCAASGFTSDGYAMGWYRQAPGKERELVAAISWRGGSTYYADSVKGRFTISRDNAKNTVYLQMNSLKPEDTAVYYCAKDYYYGLEHYGYWGQGTQVTVSS | low polyreactivity
29 | QVQLVESGGGLVQAGGSLRLSCAASGFTSGYNVMGWYRQEPGKERELVAAISWRGTSTYYADSVKGRFTISRDNAKNTVYLQMNSLKPEDTAVYYCAADRYWRLSGYEYWGQGTQVTVSS | high polyreactivity
30 | QVQLVESGGGLVQAGGSLRLSCAASGFTSLGNAMGWYRQAPGKERELVAAISRSGGRTYYADSVKGRFTISRDNAKNTVYLQMNSLKPEDTAVYYCNAVRLYGQGGDYWGQGTQVTVSS | high polyreactivity
31 | QVQLVESGGGLVQAGGSLRLSCAASGFTSPTAMGWYRQAPGKVRELVADISVGDGSTYYADSVKGRFTISRDNAKNTVYLQMNSLKREDTAVYYCAAEYWLYWYQDGFGFDYWGQGTQVTVSS | high polyreactivity
32 | QVQLVESGGGLVQAGGSLRLSCAASGFTSRLYAMGWYRQAPGKEREFVAAISWDGTRTYYADSVKGRFTISRDNAKNTVYLQMNSLKPEDTAVYYCNARRRQWQARYDYWGQGTQITVSS | high polyreactivity
33 | QVQLVESGGGLVQAGGSLRLSCAASGFTSSINAMGWYRQEPGKERELVAAIRSGGSTNYADSVKGRFTISRDNAKNTVYLQMNSLKPEDTAVYYCAAVTRVYGKTMGYWGQGTQVTVSS | high polyreactivity
34 | QVQLVESGGGLVQAGGSLRLSCAASGFTVDYYAMGWYLQAPGKERELVAAISSSGGSTYYADSVKGRFTISRDNAKNTVYLLMNSLKPEDTAVYYCATGHSKQYDYWGQGTQVTVSS | high polyreactivity
35 | QVQLVESGGGLVQAGGSLRLSCAASGFTVFYNAMGWYRQAPGKERELVAAITARGGGTYYADSVKGRFTISRDNAKNTVYLQMNSLKPEDTAVYYCAADSFIPPYDHWGQGTQVTVSS | low polyreactivity
36 | QVQLVESGGGLVQAGGSLRLSCAASGFTVNNNGMGWYIQAPGKERELVASISSRTTSTYYADSVKGRFTFSRDKAKNTDYFQTNSLKPEDTAVYYCAAQAWWDGEYDYWGQGTQVTVSS | high polyreactivity
37 | QVQLVESGGGLVQAGGSLRLSCAASGFTVRYYAMGWYRQAPGKERELVAAISWSGGSTYYADSVKGRFTISRDNAKNTVYLQMNSLKPEDTAVYYCNRETSPKVYYPNDYWGQGTQVTVSS | low polyreactivity
38 | QVQLVESGGGLVQAGGSLRLSCAASGFTVSYYVMGWYRQAPGKERELVAGISWSGVSTYYADSVKGRFTISRDNAKNTVYLQMNSLKPEDTAVYYCAAGYDFSFFVPVRYTEYDYWGQGTQVTVSS | high polyreactivity
39 | QVQLVESGGGLVQAGGSLRLSCAASGFTVTRYAMGWYRQAPGKERELVAAITRSGSSTSYADSVKGRFTISRDNAKNTVSLQINSLKPEDTAVYYCAARLHSPRYRYDYWGQGTQVTVSS | high polyreactivity
40 | QVQLVESGGGLVQAGGSLRLSCAASGFTYDNYAMGWYRQAPGKERELVAAIRRSGSRTYYPDSVKGRFTISRDNAKNTVYLQMNSLKPEDTAVYYCAAVWYRLYGYCGQGTQVTVSS | low polyreactivity
41 | QVQLVESGGGLVQAGGSLRLSCAASGFTYGVYAMGWYRPAPGKERELVAAISRRGTSTYYADSVKGRFTISRDNAKNTVYLQMNSLKPEDTAVYFCNARRYQVTVDHWGQGTQVTVSS | high polyreactivity
